Experimental findings from publication PMC2592539 are described below.

Square brackets hold non-standard residues; d marks the D form. Side chains are listed from the residue outwards. Ends that are not written are not given here. * marks the point of attachment. Biotin = O=C1N[C@H]2[C@H](CS[C@H]2CCCCC(=O)*)N1; Bpa = N[C@@H](Cc1ccc(C(=O)c2ccccc2)cc1)C(=O)O; PEG linker = not defined here

The target in experiment [1] is HLA-A0201 MHC class I molecule on T2 cells (human (endogenous in T2) | human). In words: flow cytometry on cells; internalization study: T2 cells with 1 uM biotinylated peptide at 37 degrees, peptide left on; surface peptide by anti-biotin staining at 2, 6 and 24 h. On the technique in general: In flow cytometry, cells or beads pass a laser one at a time.
The target is the same in experiment [2]. In words: flow cytometry on cells; T2 cells treated with 1 uM biotinylated peptide for 16 hours, then exposed to UV light; peptide on the cell surface stained with anti-biotin AlexaFluor 488 antibody.
Experiment [3] has the same target. In words: flow cytometry on cells; T2 cells treated with 1 uM biotinylated peptide for 16 hours, no UV; peptide on the cell surface stained with anti-biotin AlexaFluor 488 antibody.
For experiment [4] the target is unchanged. In words: flow cytometry on cells; internalization study (pulse-chase): T2 cells with 1 uM biotinylated peptide for 2 hr at 37 degrees, washed twice, incubated a further 4 or 22 hours; surface peptide by anti-biotin staining.

Consider [Bpa]LGEQ([PEG linker-Biotin])QYSV (reading uncertain) [WT1B-S1Fbz-bio], for which, in experiment [1], the mean fluorescence (anti-biotin) at 2 h came out at 8.74, the mean fluorescence (anti-biotin) at 6 h was 44.4 and the mean fluorescence (anti-biotin) at 24 h came to 23.4. In addition, the mean fluorescence (anti-biotin) in experiment [2] was found to be 43.2. The mean fluorescence (anti-biotin) in experiment [3] turned out to be 41.5. Besides, in experiment [4], the mean fluorescence (anti-biotin) at 6 h, washed after 2 h turned out to be 6.69.
